The record followed here is patent US20100286035A1, “NEUROMEDIN U DERIVATIVE” (Takeda Pharmaceutical Company Limited, published 2010).

The IC50 is the concentration needed to halve the response being measured. Low readings indicate greater potency, high ones weaker potency. Broadly, the Kd is the equilibrium constant for the complex coming apart.

*1 amine or outer side, *2 acyl side, *3 side chain or, on linkers, in order; H or OH if unused. Primed or numbered codes have the meaning given here. Where no end group is shown, it is not given here. The star is where a group is joined. KMUS = cross-linking reagent joining N-terminal amine to thiol PEG, O=C1CC([*:3])C(=O)N1CCCCCCCCCCC(=O)[*:2]; GMBS = cross-linking reagent joining N-terminal amine to thiol PEG, O=C1CC([*:3])C(=O)N1CCCC(=O)[*:2]; SMCC = cross-linking reagent joining N-terminal amine to thiol PEG; Hexanoyl(6-succinimido-3yl) = O=C1CC([*:1])C(=O)N1CCCCCC(=O)[*:2]; AMBz = omega-aminocarboxylic acid linker (structure only drawn); AU″ = omega-aminocarboxylic acid linker (structure only drawn); ACP = omega-aminocarboxylic acid linker; Traut's reagent = N=C(CCCS)*; AB = not defined here; AD = not defined here; AP = not defined here; AU = not defined here

Assay [1] deals with T1, human FM3 (NMUR1) (human).
T1 chain: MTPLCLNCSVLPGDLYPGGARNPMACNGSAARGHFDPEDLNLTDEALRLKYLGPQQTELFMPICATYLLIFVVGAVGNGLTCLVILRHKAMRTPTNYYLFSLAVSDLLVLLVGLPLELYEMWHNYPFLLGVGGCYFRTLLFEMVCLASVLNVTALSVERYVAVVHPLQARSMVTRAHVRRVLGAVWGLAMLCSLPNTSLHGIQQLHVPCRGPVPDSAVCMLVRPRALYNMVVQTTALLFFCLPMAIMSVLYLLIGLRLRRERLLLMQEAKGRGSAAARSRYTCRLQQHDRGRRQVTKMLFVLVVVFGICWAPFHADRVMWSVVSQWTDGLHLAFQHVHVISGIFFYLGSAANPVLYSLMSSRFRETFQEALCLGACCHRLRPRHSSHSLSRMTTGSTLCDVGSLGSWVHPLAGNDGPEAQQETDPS
Description: competition with 125I-NMU8, human FM3/CHO membrane fraction, filter binding. The procedure: (§1) The protein concentrations in the FM3 and TGR1 membrane fractions were 12 and 22 μg/ml, respectively.
(§2) Namely, dilution strings of NMU derivatives and PEG conjugates were provided and diluted membrane fraction solutions (200 μl) were added. The mixture was thoroughly blended with a Vortex and the labeled ligand 2 μl (final concentration […]) was added to carry out the reaction at 25° C. for 60 min. According to the aforementioned operations, the amount of binding of the labeled ligand remaining in the filter was measured and the IC50 values were calculated using graph pad PRISM (FIG. 4A (FM3 receptor binding), FIG. 4B (TGR1 receptor binding), FIG. 4C (FM3 receptor binding), FIG. 4D (TGR1 receptor binding) Table 9).

Assay [2] deals with human TGR1 (NMUR2) (human). Description: competition with 125I-NMU8, human TGR1/CHO membrane fraction, filter binding. The protocol: as §1, §2
Assay [3] deals with T1, human FM3 (NMUR1). As to the kind of experiment: competition with 125I-NMU8, membrane fraction, filter binding; only one value in the row, read as the FM3 column. The procedure:
as §1, §2

Assay [4] has as its target T1, human FM3 (NMUR1). As to the kind of experiment: Scatchard analysis, radioligand filter binding, human FM3/CHO membrane fraction. The procedure:
as §1

For assay [5], the target named is human TGR1 (NMUR2) (human). Description: Scatchard analysis, radioligand filter binding, human TGR1/CHO membrane fraction. The procedure:
as §1

Chain of human TGR1 (NMUR2) (human) (chain, as listed by the source): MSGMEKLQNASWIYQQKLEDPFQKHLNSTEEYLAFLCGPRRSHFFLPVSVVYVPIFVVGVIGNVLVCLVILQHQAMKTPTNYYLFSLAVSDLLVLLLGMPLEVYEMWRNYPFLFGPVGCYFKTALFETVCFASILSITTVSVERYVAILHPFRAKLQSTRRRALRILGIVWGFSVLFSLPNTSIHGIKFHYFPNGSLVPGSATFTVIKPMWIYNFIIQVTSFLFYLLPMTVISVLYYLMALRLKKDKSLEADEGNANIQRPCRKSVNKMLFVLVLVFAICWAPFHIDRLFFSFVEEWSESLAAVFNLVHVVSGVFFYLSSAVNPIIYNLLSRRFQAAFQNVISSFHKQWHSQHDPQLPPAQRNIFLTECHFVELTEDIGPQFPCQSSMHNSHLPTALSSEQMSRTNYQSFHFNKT

For the molecule {PEG 30 kDa-AMBz}-YFLFRPRN-NH2 (also: PEG attached by reductive amination (NH link) to linker) [PEG30k(NH-AMBz)-NMU-8], the IC50 in assay [1] came to 6.7 nM; in assay [2], 9.4 nM.

For C(PEG 30 kDa)FFLFRPRN-NH2 [PEG30k-Cys-NMU-8], the IC50 in assay [1] came to 2.3 nM; in assay [2], 1.9 nM.

As to {PEG 30 kDa-AU″}-YFLFRPRN-NH2 [PEG30k(NH-AU)-NMU-8], the IC50 was 18 nM in assay [1] and 22 nM in assay [2].

As for {(PEG20k)2-AB}-YFLFRPRN-NH2 (reading uncertain; also: printed as (PEG20k)2(AB)-NMU-8) [(PEG20k)2(AB)-NMU-8], in assay [3], the half-maximal inhibitory concentration (IC50) was determined as 380 nM.

Consider {(PEG20k)2-AP}-YFLFRPRN-NH2 (reading uncertain; also: printed as (PEG20k)2(AP)-NMU-8) [(PEG20k)2(AP)-NMU-8], for which, in assay [3], the half-inhibitory concentration (IC50) came out at 230 nM.

Turning to {PEG 30 kDa-AMBz}-YFLFRPRN-NH2 [PEG30k(AMBz)-NMU-8], the concentration for half-maximal inhibition (IC50) was found to be 75 nM in assay [1] and 110 nM in assay [2].

B1: PEG30k(NH-AD)-NMU-8 (peptide)
peptide: {PEG 30 kDa-AD}-YFLFRPRN-NH2
modifications: reading uncertain; also: PEG-aldehyde bound by reductive amination (NH linkage), printed as PEG30k(NH-AD)-NMU-8
With B1, the IC50 is 7 nM in assay [1] and 32 nM in assay [2].

In the case of {(PEG20k)2-AMBz}-YFLFRPRN-NH2 [(PEG20k)2(AMBz)-NMU-8], the half-inhibitory concentration (IC50) in assay [1] came out at 210 nM; in assay [2], 320 nM.

As to {PEG 30 kDa-AU″}-YFLFRPRN-NH2 [PEG30k(AU)-NMU-8], the half-inhibitory concentration (IC50) was determined as 60 nM in assay [1] and 54 nM in assay [2].

{PEG 30 kDa-AP}-YFLFRPRN-NH2 (reading uncertain; also: printed as PEG30k(NH-AP)-NMU-8) [PEG30k(NH-AP)-NMU-8]: the IC50 turned out to be 6.3 nM in assay [1] and 6.9 nM in assay [2].

With YFLFRPRN-NH2 (also: 125I label (position not given here)) [125I-NMU8 (radiation labeled ligand)], the Kd turned out to be 164000 nM in assay [4] and 135000 nM in assay [5].

Turning to {PEG‑maleimide 30 kDa-Traut's reagent}-YFLFRPRN-NH2 [PEG30k(Traut)-NMU-8], the 50% inhibitory concentration (IC50) in assay [1] was determined as 6.4 nM.

The molecule {PEG30k-ACP}-YFLFRPRN-NH2 [PEG30k(ACP)-NMU-8] yielded an IC50 in assay [3] of 59 nM.

Regarding {(PEG20k)2}-YFLFRPRN-NH2 [(PEG20k)2-NMU-8], the IC50 in assay [1] is 270 nM; in assay [2], 210 nM.

Turning to {PEG 30 kDa}-YFLFRPRN-NH2 [PEG30k-NMU-8], the half-maximal inhibitory concentration (IC50) was 5.7 nM in assay [1] and 66 nM in assay [2].

{PEG 30 kDa-Hexanoyl(6-succinimido-3yl)}-YFLFRPRN-NH2 [PEG30k(EMCS)-NMU-8]: the concentration for half-maximal inhibition (IC50) in assay [1] and in assay [2] was 11 nM throughout.

On to {(PEG20k)2-AU}-YFLFRPRN-NH2 (reading uncertain; also: printed as (PEG20k)2(AU)-NMU-8) [(PEG20k)2(AU)-NMU-8], for which the IC50 in assay [1] came to 330 nM; in assay [2], 560 nM.

Regarding {PEG 30 kDa-GMBS}-YFLFRPRN-NH2 [PEG30k(GMBS)-NMU-8], the IC50 in assay [1] came out at 7.5 nM; in assay [2] it was 4.1 nM.

As for {(PEG20k)2-ACP}-YFLFRPRN-NH2 [(PEG20k)2(ACP)-NMU-8], the IC50 in assay [1] was 280 nM; in assay [2], 420 nM.

Regarding {PEG 30 kDa-AP}-YFLFRPRN-NH2 (reading uncertain; also: printed as PEG30k(AP)-NMU-8) [PEG30k(AP)-NMU-8], in assay [3], the concentration for half-maximal inhibition (IC50) was 64 nM.

On to {PEG 30 kDa-AD}-YFLFRPRN-NH2 (reading uncertain; also: printed as PEG30k(AD)-NMU-8) [PEG30k(AD)-NMU-8], for which the values for the half-inhibitory concentration (IC50) in assay [1] and in assay [2] were 130 nM and 120 nM, respectively.

On to {PEG 30 kDa-ACP}-YFLFRPRN-NH2 (also: PEG-aldehyde bound by reductive amination (NH linkage)) [PEG30k(NH-ACP)-NMU-8], for which the concentration for half-maximal inhibition (IC50) turned out to be 7.3 nM in assay [1] and 7.9 nM in assay [2].

Consider {PEG 30 kDa-KMUS}-YFLFRPRN-NH2 [PEG30k(KMUS)-NMU-8], for which the IC50 was 51 nM in assay [1] and 26 nM in assay [2].

B2: PEG30k(NH-AB)-NMU-8 (peptide)
peptide: {PEG 30 kDa-AB}-YFLFRPRN-NH2
modifications: reading uncertain; also: PEG attached by reductive amination (NH link) to linker, printed as Try-Phe-Leu-Phe-Arg-Pro-Arg-Asn-NH2
In the case of B2, the figures for the 50% inhibitory concentration (IC50) in assay [1] and in assay [2] were 2.4 nM and 2.5 nM, respectively.

Take {PEG 30 kDa-SMCC}-YFLFRPRN-NH2 [PEG30k(SMCC)-NMU-8]: the IC50 came to 4.5 nM in assay [1] and 4.3 nM in assay [2].

Regarding C(PEG 30 kDa)FFLFRPRN-NH2 [PEG30k(NHAc)-Cys-NMU-8], the IC50 in assay [1] turned out to be 18 nM; in assay [2] it was 9.1 nM.

Take YFLFRPRN-NH2 [NMU-8]: the concentration for half-maximal inhibition (IC50) in assay [1] was 0.19 nM; in assay [2] it was 0.089 nM.

Consider {(PEG20k)2-AD}-YFLFRPRN-NH2 (reading uncertain; also: printed as (PEG20k)2(AD)-NMU-8) [(PEG20k)2(AD)-NMU-8], for which the IC50 worked out at 380 nM in assay [1] and 730 nM in assay [2].

In assay [3], {PEG 30 kDa-AB}-YFLFRPRN-NH2 (reading uncertain; also: printed as PEG30k(AB)-NMU-8) [PEG30k(AB)-NMU-8] came in with an IC50 of 82 nM.

Take {PEG 30 kDa}-YFLFRPRN-NH2 [PEG30k-NH-NMU-8]: the IC50 in assay [1] and in assay [2] was 11 nM each time.
